Assay [1] addresses T1, TCL1 70-79, alanine replacement at position 9 peptide on HLA-A*02:01 (human).
T1 peptide: SLLPIMWQAY
Kind of assay: cytokine release.

The target of assay [2] is T2, TCL1 70-79, alanine replacement at position 10 peptide on HLA-A*02:01 (human).
T2 peptide: SLLPIMWQLA
Kind of assay: cytokine release.

The target of assay [3] is T3, TCL1 70-79, glycine replacement at position 1 peptide on HLA-A*02:01 (human).
T3 peptide: GLLPIMWQLY
Kind of assay: cytokine release.

Assay [4] deals with T4, TCL1 70-79, glycine replacement at position 2 peptide on HLA-A*02:01 (human).
T4 peptide: SGLPIMWQLY
Put plainly: cytokine release.

Assay [5] addresses T5, TCL1 70-79, glycine replacement at position 3 peptide on HLA-A*02:01 (human).
T5 peptide: SLGPIMWQLY
Kind of assay: cytokine release.

Assay [6] addresses T6, TCL1 70-79, glycine replacement at position 4 peptide on HLA-A*02:01 (human).
T6 peptide: SLLGIMWQLY
Kind of assay: cytokine release.

In assay [7] the target is T7, TCL1 70-79, glycine replacement at position 5 peptide on HLA-A*02:01 (human).
T7 peptide: SLLPGMWQLY
Put plainly: cytokine release.

Assay [8] has as its target T8, TCL1 70-79, glycine replacement at position 6 peptide on HLA-A*02:01 (human).
T8 peptide: SLLPIGWQLY
Kind of assay: cytokine release.

For assay [9], the target named is T9, TCL1 70-79, glycine replacement at position 7 peptide on HLA-A*02:01 (human).
T9 peptide: SLLPIMGQLY
Kind of assay: cytokine release.

In assay [10] the target is T10, TCL1 70-79, glycine replacement at position 8 peptide on HLA-A*02:01 (human).
T10 peptide: SLLPIMWGLY
Kind of assay: cytokine release.

For assay [11], the target named is T11, TCL1 70-79, alanine replacement at position 1 peptide on HLA-A*02:01 (human).
T11 peptide: ALLPIMWQLY
Put plainly: cytokine release.

In assay [12] the target is T12, TCL1 70-79, glycine replacement at position 9 peptide on HLA-A*02:01 (human).
T12 peptide: SLLPIMWQGY
Put plainly: cytokine release.

Assay [13] has as its target T13, TCL1 70-79, glycine replacement at position 10 peptide on HLA-A*02:01 (human).
T13 peptide: SLLPIMWQLG
Kind of assay: cytokine release.

Assay [14] concerns the target T14, TCL1 70-79, alanine replacement at position 2 peptide on HLA-A*02:01 (human).
T14 peptide: SALPIMWQLY
Put plainly: cytokine release.

Assay [15] addresses T15, TCL1 70-79, alanine replacement at position 3 peptide on HLA-A*02:01 (human).
T15 peptide: SLAPIMWQLY
Kind of assay: cytokine release.

In assay [16] the target is T16, TCL1 70-79, alanine replacement at position 4 peptide on HLA-A*02:01 (human).
T16 peptide: SLLAIMWQLY
Kind of assay: cytokine release.

Assay [17] has as its target T17, TCL1 70-79, alanine replacement at position 5 peptide on HLA-A*02:01 (human).
T17 peptide: SLLPAMWQLY
Put plainly: cytokine release.

Assay [18] concerns the target T18, TCL1 70-79, alanine replacement at position 6 peptide on HLA-A*02:01 (human).
T18 peptide: SLLPIAWQLY
Put plainly: cytokine release.

Assay [19] addresses T19, TCL1 70-79, alanine replacement at position 7 peptide on HLA-A*02:01 (human).
T19 peptide: SLLPIMAQLY
Put plainly: cytokine release.

For assay [20], the target named is T20, TCL1 70-79, alanine replacement at position 8 peptide on HLA-A*02:01 (human).
T20 peptide: SLLPIMWALY
Kind of assay: cytokine release.

In assay [21] the target is T21, TCL1 peptide on HLA-A*02:01 (human).
T21 peptide: SLLPIMWQLY
Put plainly: multimer staining.

B1: TCL1-TCR (TCR, V domains shown)
Valpha: GQSLEQPSEVTAVEGAIVQINCTYQTSGFYGLSWYQQHDGGAPTFLSYNGLDGLEETGRFSSFLSRSDSYGYLLLQELQMKDSASYFCLLGSGAGSYQLTFGKGTKLSVIP
Vbeta: DAGVTQSPTHLIKTRGQHVTLRCSPISGHKSVSWYQQVLGQGPQFIFQYYEKEERGRGNFPDRFSARQFPNYSSELNVNALLLGDSALYLCASSFTDGGTYEQYFGPGTRLTVT
Turning to B1, the binding result is “no recognition” in assay [1]; “recognises” in [2]; “recognises” in assay [3]; “no recognition” in assay [4]; “no recognition” in [5]; “no recognition” in [6]. In addition, the binding result is reported as “no recognition” in [7]; “no recognition” in assay [8]; “no recognition” in assay [9]; “no recognition” in assay [10]; “recognises” in assay [11]; “no recognition” in assay [12]. Besides, the binding result in assay [13] is recorded as “recognises”; in assay [14], “no recognition”; in [15] it was “no recognition”; in assay [16], “no recognition”; in assay [17] it was “no recognition”; in [18], “no recognition”. For the same molecule, the binding result in [19] is on record as “no recognition”; in assay [20], “no recognition”; in [21] it was “recognises”.

These data come from patent US20210130431A1 (published 2021).
